Biological target: human tissue factor (human, UniProt P13726 33-295)
Assay: cell-based or functional assay

B1: CNTO 860 derived from the YB2/0 host cell line C1083B (antibody, human IgG1, kappa, V domains shown)
VH: QVQLVESGGGVVQPGRSLRLSCKASGFNIKDYYMHWVRQAPGKGLEWIGLIDPENGNTIYDPKFQGRFTISADNSKNTLFLQMDSLRPEDTAVYYCARDNSYYFDYWGQGTPVTVSS
VL: DIQMTQSPSSLSASVGDRVTITCKASQDIRKYLNWYQQKPGKAPKLLIYYATSLADGVPSRFSGSGSGTDYTFTISSLQPEDIATYYCLQHGESPYTFGQGTKLEITR
ADCC potency relative to CNTO 860 derived from C463, second experiment, 51Cr-release on HCT 116 cells: ~10 fold

From US20090214528A1 (published 2009)
